Source: patent US20240352090A1, “USE OF PROTEIN SEQUENCE CAPABLE OF BINDING TO SUBSTRATE IN PREPARATION OF PRODUCT FOR INHIBITING FIBRIN ASSEMBLY” (NANJING UNIVERSITY, priority 2021, published 2024)
Changes are numbered by the printed parent chain.

B1: FD: Fibrinogen structural domain protein of FGL1, positions 48-290 of SEQ ID No. 1 (SEQ ID No. 3) (protein)
chain: TVIDLGSKRQYADCSEIFNDGYKLSGFYKIKPLQSPAEFSVYCDMSDGGGWTVIQRRSDGSENFNRGWKDYENGFGNFVQKHGEYWLGNKNLHFLTTQEDYTLKIDLADFEKNSRYAQYKNFKVGDEKNFYELNIGEYSGTAGDSLAGNFHPEVQWWASHQRMKFSTWDRDHDNYEGNCAEEDQSGWWFNRCHSANLNGVYYSGPYTAKTDNGIVWYTWHGWWYSLKSVVMKIRPNDFIPNVI
B2: FD mutant: FD with tryptophan at key positions 204 and 269 mutated to alanine (protein)
chain: B1 chain with W157A, W222A

Experiments:
fibrin aggregates [1] = target: T1, fibrin aggregates (Homo sapiens, UniProt P02671); experiment: synergistic dissolving of fibrin aggregates with urokinase uPA; type: biochemical
T1 construct: Thrombin cleaves the α and γ subunits of fibrin, exposing fibrinopeptide A (Knob A) and fibrinopeptide B (Knob B)
T1 sequence (P02671 36-866 limits assumed): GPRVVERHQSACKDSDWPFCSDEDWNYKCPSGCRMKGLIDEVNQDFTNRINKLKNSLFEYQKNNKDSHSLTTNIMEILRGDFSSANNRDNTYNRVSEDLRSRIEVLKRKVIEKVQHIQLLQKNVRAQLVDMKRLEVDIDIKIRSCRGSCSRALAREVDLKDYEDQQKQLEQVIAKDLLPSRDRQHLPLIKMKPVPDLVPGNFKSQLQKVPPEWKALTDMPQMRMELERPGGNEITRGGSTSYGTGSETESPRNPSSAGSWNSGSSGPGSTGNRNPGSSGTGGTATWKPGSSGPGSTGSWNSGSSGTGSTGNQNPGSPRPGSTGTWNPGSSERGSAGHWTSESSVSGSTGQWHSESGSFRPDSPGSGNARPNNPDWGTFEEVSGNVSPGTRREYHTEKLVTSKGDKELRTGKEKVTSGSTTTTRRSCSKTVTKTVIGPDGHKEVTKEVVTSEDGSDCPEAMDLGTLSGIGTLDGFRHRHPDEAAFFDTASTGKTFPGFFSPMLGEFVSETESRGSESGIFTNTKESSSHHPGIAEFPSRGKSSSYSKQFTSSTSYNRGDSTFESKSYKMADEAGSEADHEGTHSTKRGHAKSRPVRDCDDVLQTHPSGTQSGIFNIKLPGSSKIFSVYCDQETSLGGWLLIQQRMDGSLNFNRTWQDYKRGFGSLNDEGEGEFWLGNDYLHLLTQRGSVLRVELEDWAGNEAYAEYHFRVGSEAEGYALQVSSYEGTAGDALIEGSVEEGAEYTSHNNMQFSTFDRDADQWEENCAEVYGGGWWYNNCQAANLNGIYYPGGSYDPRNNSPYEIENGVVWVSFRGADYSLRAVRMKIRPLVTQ
T1 sequence (P02675 45-491 partner limits assumed): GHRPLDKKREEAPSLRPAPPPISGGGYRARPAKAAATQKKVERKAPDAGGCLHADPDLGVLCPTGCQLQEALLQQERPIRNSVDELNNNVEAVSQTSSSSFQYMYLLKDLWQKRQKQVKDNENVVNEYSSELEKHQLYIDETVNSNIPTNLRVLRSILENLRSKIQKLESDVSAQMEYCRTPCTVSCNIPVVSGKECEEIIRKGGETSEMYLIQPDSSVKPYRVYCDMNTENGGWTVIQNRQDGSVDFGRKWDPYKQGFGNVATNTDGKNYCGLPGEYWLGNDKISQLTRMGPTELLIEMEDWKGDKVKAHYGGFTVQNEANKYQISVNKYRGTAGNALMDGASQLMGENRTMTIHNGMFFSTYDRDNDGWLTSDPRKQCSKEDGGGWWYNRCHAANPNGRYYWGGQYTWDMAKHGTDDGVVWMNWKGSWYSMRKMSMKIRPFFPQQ
T1 sequence (P02679 27-453 partner): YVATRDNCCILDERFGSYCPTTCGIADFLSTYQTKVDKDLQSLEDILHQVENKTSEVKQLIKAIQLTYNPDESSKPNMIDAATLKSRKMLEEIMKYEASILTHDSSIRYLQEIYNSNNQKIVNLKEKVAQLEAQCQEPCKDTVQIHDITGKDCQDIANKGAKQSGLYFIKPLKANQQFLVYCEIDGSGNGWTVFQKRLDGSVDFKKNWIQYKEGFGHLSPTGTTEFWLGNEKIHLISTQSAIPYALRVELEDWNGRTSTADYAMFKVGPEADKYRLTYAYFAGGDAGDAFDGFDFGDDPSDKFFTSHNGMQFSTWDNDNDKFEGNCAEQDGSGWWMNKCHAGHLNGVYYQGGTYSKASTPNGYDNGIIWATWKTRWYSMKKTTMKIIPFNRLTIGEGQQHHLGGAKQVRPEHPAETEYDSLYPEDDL

[2] = tested on: thrombin-induced thrombosis model; experiment: thrombin-induced thrombosis model, plasmid injection and overexpression; type: in vivo, BALB/c mice; conditions: expression plasmid 100 μg per mouse tail vein, overexpression; thrombin 15 U per mouse; deaths within 1 hour
Experimental: Construct FGL1 expression plasmid with pcDNA3.1 vector, inject the plasmid into the tail vein of mice, 100 μg/2 ml PBS/per mouse, extract the plasma of the mice after 18 hours, and detect the overexpressed FGL1 content in the plasma by ELISA;
Thrombin 15 U/200 μl PBS/per mouse was injected into the tail vein for modelling, and the number of mice in each group that died within 1 hour after injection was recorded to calculate the protection rate of Fibrinogen like protein 1 (FGL1) overexpression.
The specific operation methods were the same as those described previously for the protective effects of overexpression of FGL1.

fibrin [3] = target: T2, fibrin (Homo sapiens, UniProt P02671); experiment: fibrin aggregation, light scattering / A350 kinetic curve; type: biochemical; conditions: 3.3 μM Fibrinogen, 2.5 U/ml thrombin, ±5 mM CaCl2, 25° C., different doses
T2 construct: Thrombin cleaves the α and γ subunits of fibrin, exposing fibrinopeptide A (Knob A) and fibrinopeptide B (Knob B)
T2 sequence (P02671 36-866 limits assumed): T1 sequence (P02671 36-866 limits assumed)
T2 sequence (P02675 45-491 partner limits assumed): T1 sequence (P02675 45-491 partner limits assumed)
T2 sequence (P02679 27-453 partner): T1 sequence (P02679 27-453 partner)
Experimental: Multifunctional enzyme marker M200PRO detected the light scattering process, and the instrument excitation light was adjusted to 350 nm and emission light to 350 nm. 3.3 μM of Fibrinogen in the control group, 3.3 μM of Fibrinogen and 2.5 U/ml of thrombin in the model group and 3.3 μM of Fibrinogen and 2.5 U/ml thrombin and different dose of Fibrinogen related protein 1 (FGL1). All the above systems were in 20 mM Tris-HCl, pH 7.4, 150 mM NaCl±5 mM CaCl2 solution in a 100 μl/well (96-well plate). The kinetic curve was measured by assaying every minute at 25° C.
Multifunctional enzyme marker M200PRO detected the light scattering process; the instrument excitation light was adjusted to 350 nm, and the emission light was adjusted to 350 nm. 3.3 μM of Fibrinogen in the control group, 3.3 μM of Fibrinogen and 2.5 U/ml of thrombin in the model group, and 3.3 μM of Fibrinogen and 2.5 U/ml thrombin and different dose of fibrinogen structural domain (FD). The above systems were in 20 mM Tris-HCl, pH 7.4, 150 mM NaCl±5 mM CaCl2 solution. The kinetic curves were measured at 25° C. by detecting the A350 absorption values every minute.

fibrin aggregates [4] = target: T1, fibrin aggregates; experiment: synergistic dissolving of fibrin aggregates with tissue plasminogen activator tPA; type: biochemical; conditions: 2 nM tPA plus different doses, added after 1 h of fibrin formation
Experimental: The Multifunctional enzyme marker M200PRO detected the light scattering process, and the excitation light of the instrument was adjusted to 350 nm and the emission light to 350 nm. 3.3 μM of Fibrinogen in the control group, 3.3 μM of Fibrinogen and 2.5 U/ml of thrombin in the model group. The above systems were all set up in 20 mM Tris-HCl, pH 7.4, 150 mM NaCl ±[…] CaCl2 solution in a 100 μl/well (96-well plate). After 1 h of gel-like fibrin formation, 100 μl, 2 nM tissue plasminogen activator tPA and different doses of Fibrinogen like protein 1 (FGL1) were added. Kinetic curves were measured at 25° C. by detecting A350 absorption values every minute.
The control group was a reagent control, and the administered groups were 2 nM tissue plasminogen activator tPA, different doses of Fibrinogen like protein 1 (FGL1) alone groups, and groups in combination with other reagents. Kinetic curves were measured at 37° C. using a multifunctional enzyme marker M200PRO to detect the absorption values of the 510 nm excitation light every minute.
The Multifunctional enzyme marker M200PRO detected the light scattering process, and the excitation light of the instrument was adjusted to 350 nm and the emission light to 350 nm. […] Kinetic curves were measured at 25° C. by detecting A350 absorption values every minute. […]

fibrin [5] = target: T2, fibrin; experiment: fibrin aggregation observed by scanning electron microscopy; type: biochemical; conditions: FIG. 12
mouse thrombus = mouse thrombus morphology observed by scanning electron microscopy; type: in vivo, mice; conditions: FIG. 14
aggregated fibrin = experiment: cleavage of aggregated fibrin; type: biochemical; conditions: FIG. 27
From the text: Mutation of certain key sites in this protein's amino acid sequence can also enhance its function of inhibiting thrombosis.

| Molecule | dissolving fibrin aggregates together with urokinase uPA (fibrin aggregates [1]; 800 U/ml uPA plus different doses of FGL1) | survival rate of mice [2] | effect on fibrin aggregation (fibrin [3]) | dissolving fibrin aggregates together with tPA (fibrin aggregates [4]) | dissolving fibrin aggregates together with urokinase uPA (fibrin aggregates [1]; 2800 U/ml uPA plus different doses of FD (800 U/ml in thrombus lysis)) | structure of thrombus formed by fibrin aggregation (fibrin [5]) | morphology of mouse thrombus (mouse thrombus) | cleavage of aggregated fibrin, mutant compared to unmutated form (aggregated fibrin) |
| --- | --- | --- | --- | --- | --- | --- | --- | --- |
| FGL1: Fibrinogen like protein 1, amino acid sequence SEQ ID No. 1, expressed in eukaryotic cells; given as pcDNA3.1 expression plasmid in Example 6 | synergistically dissolving fibrin aggregates | significantly increasing the survival rate of mice | inhibits fibrin aggregation | synergistically dissolving fibrin aggregates | – | – | – | – |
| B1 | – | significant improvement of survival rate in mice | inhibits fibrin aggregation | synergistically dissolving fibrin aggregates | synergistically dissolving fibrin aggregates | becomes thinner and looser in structure | becomes thinner and looser in structure | – |
| B2 | – | – | – | – | – | – | – | significantly enhanced |
